Laboratory results as given in patent publication US20240034761A1, “REGENERATION OF MAMMALIAN TISSUES USING SYNTHETIC IMMODULINS” (priority 2022, published 2024).
Ends that are not written are not given here. * marks the point of attachment. Biotin = O=C1N[C@H]2[C@H](CS[C@H]2CCCCC(=O)*)N1

Tests used:
[1] = target: pure recombinant CD44 protein (Abcam); assay: plate assay, pH 5.2, peptide pre-bound with 10 ug/well HMW-hyaluronan (CD44 capture through HA), anti-CD44 mAb/TMB detection
[2] = target: pure recombinant CD44 protein (Abcam); assay: plate assay, biotin-peptide on streptavidin plate, pH 5.2, no hyaluronan (CONTROL), 100 ng/well CD44, anti-CD44 mAb/TMB detection
[3] = target: pure recombinant CD44 protein (Abcam); assay: plate assay, pH 5.2, peptide pre-bound with 10 ug/well LMW-hyaluronan (CD44 capture through HA), anti-CD44 mAb/TMB detection
[4] = target: pure recombinant CD44 protein (Abcam); assay: plate assay, pH 7.4, peptide pre-bound with 10 ug/well LMW-hyaluronan (CD44 capture through HA), anti-CD44 mAb/TMB detection
[5] = target: pure recombinant CD44 protein (Abcam); assay: plate assay, biotin-peptide on streptavidin plate, pH 7.4, no hyaluronan (CONTROL), 100 ng/well CD44, anti-CD44 mAb/TMB detection
[6] = target: pure recombinant CD44 protein (Abcam); assay: plate assay, pH 7.4, peptide pre-bound with 1.5 ug/well HMW-hyaluronan (CD44 capture through HA), anti-CD44 mAb/TMB detection; reference set to 100
[7] = target: pure recombinant CD44 protein (Abcam); assay: plate assay, pH 7.4, peptide pre-bound with 10 ug/well HMW-hyaluronan (CD44 capture through HA), anti-CD44 mAb/TMB detection
[8] = target: pure recombinant CD44 protein (Abcam); assay: plate assay, pH 5.2, peptide pre-bound with 1.5 ug/well HMW-hyaluronan (CD44 capture through HA), anti-CD44 mAb/TMB detection; reference set to 100
[9] = target: pure recombinant CD44 protein (Abcam); assay: plate assay, pH 7.4, peptide + 10 ug/well holotransferrin + 1.5 ug/well HMW-hyaluronan (CD44 capture through HA), anti-CD44 mAb/TMB detection
[10] = target: pure recombinant CD44 protein (Abcam); assay: plate assay, pH 5.2, peptide + 10 ug/well holotransferrin + 1.5 ug/well HMW-hyaluronan (CD44 capture through HA), anti-CD44 mAb/TMB detection
[11] = target: pure recombinant CD44 protein (Abcam); assay: plate assay, pH 7.4, peptide + 10 ug/well holotransferrin, no hyaluronan (CONTROL), 100 ng/well CD44, anti-CD44 mAb/TMB detection
[12] = target: pure recombinant CD44 protein (Abcam); assay: plate assay, pH 7.4, peptide + 10 ug/well holotransferrin + 10 ug/well LMW-hyaluronan (CD44 capture through HA), anti-CD44 mAb/TMB detection
[13] = target: pure recombinant CD44 protein (Abcam); assay: plate assay, pH 5.2, peptide + 10 ug/well holotransferrin + 10 ug/well HMW-hyaluronan (CD44 capture through HA), anti-CD44 mAb/TMB detection
[14] = target: pure recombinant CD44 protein (Abcam); assay: plate assay, pH 7.4, peptide + 10 ug/well holotransferrin + 10 ug/well HMW-hyaluronan (CD44 capture through HA), anti-CD44 mAb/TMB detection
[15] = target: pure recombinant CD44 protein (Abcam); assay: plate assay, pH 5.2, peptide + 10 ug/well holotransferrin + 10 ug/well LMW-hyaluronan (CD44 capture through HA), anti-CD44 mAb/TMB detection
[16] = target: pure recombinant CD44 protein (Abcam); assay: plate assay, pH 5.2, peptide + 10 ug/well holotransferrin, no hyaluronan (CONTROL), 100 ng/well CD44, anti-CD44 mAb/TMB detection

Sequence of pure recombinant CD44 protein (Abcam) (P16070 whole entry): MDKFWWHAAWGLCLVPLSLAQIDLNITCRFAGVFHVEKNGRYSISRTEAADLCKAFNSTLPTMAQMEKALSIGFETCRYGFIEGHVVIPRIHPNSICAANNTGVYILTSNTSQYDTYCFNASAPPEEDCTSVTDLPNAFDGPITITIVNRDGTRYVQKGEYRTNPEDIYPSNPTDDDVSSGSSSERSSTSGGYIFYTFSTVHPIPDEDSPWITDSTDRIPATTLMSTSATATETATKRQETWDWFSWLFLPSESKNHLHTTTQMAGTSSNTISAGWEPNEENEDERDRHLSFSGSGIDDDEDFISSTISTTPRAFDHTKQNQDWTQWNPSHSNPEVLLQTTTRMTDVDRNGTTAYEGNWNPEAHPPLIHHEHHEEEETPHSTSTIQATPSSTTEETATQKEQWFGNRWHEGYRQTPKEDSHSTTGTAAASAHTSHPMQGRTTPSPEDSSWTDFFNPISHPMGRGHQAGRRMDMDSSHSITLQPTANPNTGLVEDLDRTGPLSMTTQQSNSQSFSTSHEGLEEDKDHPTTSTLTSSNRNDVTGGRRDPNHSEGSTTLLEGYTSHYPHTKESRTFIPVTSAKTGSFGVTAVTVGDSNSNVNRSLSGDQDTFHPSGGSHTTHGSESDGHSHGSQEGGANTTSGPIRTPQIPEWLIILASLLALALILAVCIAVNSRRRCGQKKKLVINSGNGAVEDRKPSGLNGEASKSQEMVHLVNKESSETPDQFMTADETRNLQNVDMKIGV

| CD44 immunoreactivity (AU) (AU (immX3AVD + 1.5 ug HMW-HA = 100)) [1] | CD44 immunoreactivity (AU) (AU (immX3AVD + 1.5 ug HMW-HA = 100)) [2] | CD44 immunoreactivity (AU) (AU (immX3AVD + 1.5 ug HMW-HA = 100)) [3] | CD44 immunoreactivity (AU) (AU (immX3AVD + 1.5 ug HMW-HA = 100)) [4] | CD44 immunoreactivity (AU) (AU (immX3AVD + 1.5 ug HMW-HA = 100)) [5] | CD44 immunoreactivity (AU) (AU (immX3AVD + 1.5 ug HMW-HA = 100)) [6] | CD44 immunoreactivity (AU) (AU (immX3AVD + 1.5 ug HMW-HA = 100)) [7] | CD44 immunoreactivity (AU) (AU (immX3AVD + 1.5 ug HMW-HA = 100)) [8] | CD44 immunoreactivity (AU) (AU (immX3AVD + 1.5 ug HMW-HA = 100)) [9] | CD44 immunoreactivity (AU) (AU (immX3AVD + 1.5 ug HMW-HA = 100)) [10] | CD44 immunoreactivity (AU) (AU (immX3AVD + 1.5 ug HMW-HA = 100)) [11] | CD44 immunoreactivity (AU) (AU (immX3AVD + 1.5 ug HMW-HA = 100)) [12] | CD44 immunoreactivity (AU) (AU (immX3AVD + 1.5 ug HMW-HA = 100)) [13] | CD44 immunoreactivity (AU) (AU (immX3AVD + 1.5 ug HMW-HA = 100)) [14] | CD44 immunoreactivity (AU) (AU (immX3AVD + 1.5 ug HMW-HA = 100)) [15] | CD44 immunoreactivity (AU) (AU (immX3AVD + 1.5 ug HMW-HA = 100)) [16] | Binder |
| --- | --- | --- | --- | --- | --- | --- | --- | --- | --- | --- | --- | --- | --- | --- | --- | --- |
| 105 | 13.2 | 103 | 103 | 19.6 | 100 | 101 | 100 |  |  |  |  |  |  |  |  | Biotin-KKGFYKKKQCRPSKGRKRGFCWAVD (cysteine pairing not given here) [immX3AVD peptide (N-terminally biotinylated, bound to streptavidin-coated plate)] |
|  |  |  |  |  |  |  |  | 98.3 | 103 | 3.1 | 38.7 | 94.8 | 107 | 27.4 | 12 | Biotin-KKGFYKKKQCRPSKGRKRGFCWAVD (peptide, part only; not given: holotransferrin, not shown: large carriers, cysteine pairing not given here; also: non-covalent mixture/complex with holotransferrin, stoichiometry not given here) [immX3AVD + holoTf (immX3AVD peptide incubated with 10 ug/well holotransferrin)] |
